Reference: patent US10472652B2, “Chemical engineering processes and apparatus for the synthesis of compounds” (TEEWINOT T[…], priority 2013, dated 2019)

Legend:
Type in all cases: biochemical
[1] = molecular target: T1, THCA synthase (Cannabis sativa, UniProt Q8GTB6); test: effect of detergent SDS on THCA synthase conversion of CBGA; conditions: SDS added to 100 mM citrate buffer containing cyclodextrin
T1 construct: His-tag (C); made in house; host or cells: Pichia pastoris (PichiaPink, pPink-HC vector), secreted into the medium; cell-free T3 supernatant used
T1 sequence (Q8GTB6 29-545): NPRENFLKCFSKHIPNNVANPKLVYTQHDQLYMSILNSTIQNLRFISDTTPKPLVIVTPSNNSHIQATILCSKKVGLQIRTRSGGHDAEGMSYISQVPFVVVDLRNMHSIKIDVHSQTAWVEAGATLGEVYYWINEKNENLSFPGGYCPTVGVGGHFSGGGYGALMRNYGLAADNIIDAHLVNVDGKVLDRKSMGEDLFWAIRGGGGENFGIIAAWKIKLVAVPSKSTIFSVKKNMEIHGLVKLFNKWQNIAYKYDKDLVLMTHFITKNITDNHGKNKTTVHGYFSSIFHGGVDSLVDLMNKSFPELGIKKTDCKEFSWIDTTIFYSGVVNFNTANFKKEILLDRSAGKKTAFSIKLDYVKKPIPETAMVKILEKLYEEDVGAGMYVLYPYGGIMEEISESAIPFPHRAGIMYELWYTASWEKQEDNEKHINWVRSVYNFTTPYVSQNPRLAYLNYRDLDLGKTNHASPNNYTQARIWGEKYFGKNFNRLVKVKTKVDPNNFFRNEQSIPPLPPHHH
Procedure: In contrast, addition of SDS to 100 mM citrate buffer containing cyclodextrin destroyed THCA synthases ability to catalyze reaction. Only 8% of the substrate was converted to product under these reaction conditions with the formation of THCA being favored as product under these reaction conditions.

[2] = molecular target: T1, THCA synthase; test: pH study: ratio of THCA to CBCA produced when THCA synthase is contacted with CBGA
Procedure: Table 3 illustrates the results of a pH study that was aimed at identifying the effect of pH on product ratio, namely, the ratio of THCA to CBCA compounds produced when THCA synthase is contacted with CBGA as substrate. The pH of the reaction mixture in this study ranged from a pH of 4.0 to 8.0.
In fact, THCA is the major product when catalysis is carried out at a pH of 4.0. Increasing the pH of the reaction mixture altered the product distribution ratio with approximately 30% CBCA being produced as product at a pH of 5.0 and around […] CBCA being produced as product at a pH value of 6.0. A further increase in pH of the reaction mixture, such as an increase of the pH of the reaction mixture to a pH of 7.0 gave CBCA exclusively as the product of THCA synthase catalyzed conversion of CBGA. Any further increases in pH, moreover, reduced or eliminated catalytic activity of THCA synthase, with no product observed for a reaction mixture at a pH of 8.0.

[3] = molecular target: T1, THCA synthase; test: effect of concentration of non-aqueous solvent (DMSO) on THCA synthase catalytic rate and THCA:CBCA product ratio
Procedure: Accordingly, the effects of temperature, pH, solvent, ionic strength and incubation times on the distribution ratio of THCA to CBCA products were studied. In one embodiment, the effect of solvent on product distribution ratio was evaluated. Cannabinoids are lipohilic in nature and are poorly solubilized in aqueous solvents. The poor solubility of cannabinoids in aqueous solvent has prevented the development of ex-vivo enzyme catalyzed methodologies for the synthesis of cannabinoids and cannabinoid analogs.
The catalytic rate […] slightly as concentration of the non-aqueous solvent is increased. Thus, 20% DMSO gave the highest catalytic rate, approximately 2.5-fold faster than catalysis in buffer alone. Table 1 illustrates the effect of concentration of non-aqueous solvent on the rate of catalytic activity.
As further illustrated in this table, the concentration of non-aqueous solvent can alter the ratio of THCA to CBCA produced as product. Thus, greater levels of THCA are obtained when the concentration of DMSO in buffer is less that 20%, with a THCA:CBCA distribution ratio of 10:1 observed when 10% DMSO is used as the solvent.

B1: THCA synthase: recombinant His-tagged tetrahydrocannabinolic acid synthase secreted by transformed Pichia pastoris yeast cells (protein, UniProt Q8GTB6 29-545, looked up)
Tetrahydrocannabinolic acid …: T1 sequence (Q8GTB6 29-545)
modifications: His tag
notes: recombinant His-tagged tetrahydrocannabinolic acid synthase secreted by transformed Pichia pastoris yeast cells
[1]
  substrate converted to product: 8%
[2]; pH 4, substrate CBGA
  CBCA (share of product): Trace
  THCA (share of product): 100%
[2]; pH 5, substrate CBGA
  THCA (share of product): 70%
[2]; pH 6, substrate CBGA
  THCA (share of product): 85%
[2]; pH 7, substrate CBGA
  CBCA (share of product): 100%
  THCA (share of product): 0%
[2]; pH 8, substrate CBGA
  CBCA (share of product): 0%
  THCA (share of product): 0%
[3]; DMSO 0%
  FASTER (catalytic rate relative to buffer alone): 1X
[3]; DMSO 10%
  FASTER (catalytic rate relative to buffer alone): 1.2X
[3]; DMSO 30%
  FASTER (catalytic rate relative to buffer alone): 0.3X
